Earlier results in article PMC12564508.

Target: NS4B (Dengue virus) (UniProt P27909)

In the case of NS4A (from UniProt P27909), the Kd is listed as 50 nM.
